According to PMC10397247:
Values belong to the binder of their own block, whether it stands above or below them.

Tests used:
[1] = target: T1, 4H2944-bH; experiment: two-hybrid library CCNG1;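 note: natural log of median RNA to DNA barcode read ratio; higher means stronger binding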
T1 chain: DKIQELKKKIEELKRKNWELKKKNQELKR

[2] = target: T2, 4H342-bH; experiment: two-hybrid library CCNG1;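 note: natural log of median RNA to DNA barcode read ratio; higher means stronger binding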
T2 chain: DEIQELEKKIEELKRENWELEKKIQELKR

[3] = target: T3, 4H2883-bH; experiment: two-hybrid library CCNG1;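 note: natural log of median RNA to DNA barcode read ratio; higher means stronger binding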
T3 chain: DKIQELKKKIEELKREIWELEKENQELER

[4] = target: T4, 4H491-bH; experiment: two-hybrid library CCNG1;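 note: natural log of median RNA to DNA barcode read ratio; higher means stronger binding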
T4 chain: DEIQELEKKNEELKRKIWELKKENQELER

[5] = target: T5, 4H48-bH; experiment: two-hybrid library CCNG1;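 note: natural log of median RNA to DNA barcode read ratio; higher means stronger binding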
T5 chain: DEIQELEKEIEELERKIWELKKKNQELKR

[6] = target: T6, 4H2937-bH; experiment: two-hybrid library CCNG1;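 note: natural log of median RNA to DNA barcode read ratio; higher means stronger binding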
T6 chain: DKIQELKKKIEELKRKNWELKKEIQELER

[7] = target: T7, 4H850-bN; experiment: two-hybrid library CCNG1
T7 chain: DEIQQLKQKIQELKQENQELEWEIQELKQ

[8] = target: T8, 4H967-bA; experiment: two-hybrid library CCNG1
T8 chain: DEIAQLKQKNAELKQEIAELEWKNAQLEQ

[9] = target: T9, 4H908-bA; experiment: two-hybrid library CCNG1
T9 chain: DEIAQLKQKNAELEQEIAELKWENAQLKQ

[10] = target: T10, P5A-bA; experiment: two-hybrid library CCNG1
T10 chain: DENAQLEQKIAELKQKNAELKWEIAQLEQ

[11] = target: T11, 4H687-bA; experiment: two-hybrid library CCNG1
T11 chain: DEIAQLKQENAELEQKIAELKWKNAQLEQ

[12] = target: T12, 4H883-bA; experiment: two-hybrid library CCNG1
T12 chain: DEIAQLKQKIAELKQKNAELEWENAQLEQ

[13] = target: T13, 4H953-bA; experiment: two-hybrid library CCNG1
T13 chain: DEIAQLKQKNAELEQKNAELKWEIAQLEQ

[14] = target: T14, 4H607-bA; experiment: two-hybrid library CCNG1
T14 chain: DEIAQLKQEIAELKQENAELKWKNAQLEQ

[15] = target: T15, 4H72-bA; experiment: two-hybrid library CCNG1
T15 chain: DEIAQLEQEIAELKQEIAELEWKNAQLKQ

[16] = target: T16, 4H918-bA; experiment: two-hybrid library CCNG1
T16 chain: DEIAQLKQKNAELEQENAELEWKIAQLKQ

[17] = target: T17, 4H797-bA; experiment: two-hybrid library CCNG1
T17 chain: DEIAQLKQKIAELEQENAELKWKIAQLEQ

[18] = target: T18, 4H717-bA; experiment: two-hybrid library CCNG1
T18 chain: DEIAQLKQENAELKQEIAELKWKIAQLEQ

[19] = target: T19, O10-bS; experiment: two-hybrid library CCNG1
T19 chain: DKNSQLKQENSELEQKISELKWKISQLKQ

[20] = target: T20, 4H568-bA; experiment: two-hybrid library CCNG1
T20 chain: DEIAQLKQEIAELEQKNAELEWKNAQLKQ

[21] = target: T21, 4H754-bA; experiment: two-hybrid library CCNG1
T21 chain: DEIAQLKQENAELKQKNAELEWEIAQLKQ

[22] = target: T22, 4H2883-bN; experiment: two-hybrid library CCNG1
T22 chain: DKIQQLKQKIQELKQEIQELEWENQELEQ

[23] = target: T23, 4H2944-bN; experiment: two-hybrid library CCNG1
T23 chain: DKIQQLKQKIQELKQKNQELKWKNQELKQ

[24] = target: T24, 4H491-bN; experiment: two-hybrid library CCNG1
T24 chain: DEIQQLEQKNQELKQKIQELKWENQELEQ

[25] = target: T25, 4H342-bN; experiment: two-hybrid library CCNG1
T25 chain: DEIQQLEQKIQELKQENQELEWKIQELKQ

[26] = target: T26, 4H48-bN; experiment: two-hybrid library CCNG1
T26 chain: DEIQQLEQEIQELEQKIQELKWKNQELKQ

[27] = target: T27, 4H2937-bN; experiment: two-hybrid library CCNG1
T27 chain: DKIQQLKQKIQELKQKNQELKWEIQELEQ

[28] = target: T28, P12mSN; experiment: two-hybrid library CCNG1
T28 chain: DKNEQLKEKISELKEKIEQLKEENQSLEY

[29] = target: T29, P9mSN; experiment: two-hybrid library CCNG1
T29 chain: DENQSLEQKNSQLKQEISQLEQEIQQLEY

[30] = target: T30, P5mSN; experiment: two-hybrid library CCNG1
T30 chain: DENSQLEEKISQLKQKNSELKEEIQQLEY

[31] = target: T31, P3mSN; experiment: two-hybrid library CCNG1
T31 chain: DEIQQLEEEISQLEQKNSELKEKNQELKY

[32] = target: T32, P6mSN; experiment: two-hybrid library CCNG1
T32 chain: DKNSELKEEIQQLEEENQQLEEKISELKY

[33] = target: T33, P1mSN; experiment: two-hybrid library CCNG1
T33 chain: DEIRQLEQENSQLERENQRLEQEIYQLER

[34] = target: T34, P8mSN; experiment: two-hybrid library CCNG1
T34 chain: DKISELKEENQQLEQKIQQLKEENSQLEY

[35] = target: T35, P7mSN; experiment: two-hybrid library CCNG1
T35 chain: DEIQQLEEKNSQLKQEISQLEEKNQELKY

[36] = target: T36, P2mSN; experiment: two-hybrid library CCNG1
T36 chain: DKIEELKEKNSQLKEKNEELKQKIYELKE

[37] = target: T37, P4mSN; experiment: two-hybrid library CCNG1
T37 chain: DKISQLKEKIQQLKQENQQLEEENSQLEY

[38] = target: T38, 4H2883-bA; experiment: two-hybrid library CCNG1
T38 chain: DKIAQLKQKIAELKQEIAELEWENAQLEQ

[39] = target: T39, 4H48-bA; experiment: two-hybrid library CCNG1
T39 chain: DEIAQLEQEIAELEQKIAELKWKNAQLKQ

[40] = target: T40, 4H2937-bA; experiment: two-hybrid library CCNG1
T40 chain: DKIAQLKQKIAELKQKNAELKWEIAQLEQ

[41] = target: T41, 4H342-bA; experiment: two-hybrid library CCNG1
T41 chain: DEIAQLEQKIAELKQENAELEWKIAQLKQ

[42] = target: T42, 4H2944-bA; experiment: two-hybrid library CCNG1
T42 chain: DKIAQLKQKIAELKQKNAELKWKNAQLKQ

[43] = target: T43, 4H491-bA; experiment: two-hybrid library CCNG1
T43 chain: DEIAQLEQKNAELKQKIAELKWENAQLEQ

[44] = target: T44, APC8910-AA; experiment: two-hybrid library CCmax; details: mean of both orientations
T44 chain: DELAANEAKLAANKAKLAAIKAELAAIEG

[45] = target: T45, 4H2458-AA; experiment: two-hybrid library CCmax; details: mean of both orientations
T45 chain: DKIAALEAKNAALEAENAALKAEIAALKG

[46] = target: T46, 4H716-AA; experiment: two-hybrid library CCmax; details: mean of both orientations
T46 chain: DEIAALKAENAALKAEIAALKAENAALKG

[47] = target: T47, 4H3330-AA; experiment: two-hybrid library CCmax; details: mean of both orientations
T47 chain: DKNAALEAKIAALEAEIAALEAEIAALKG

[48] = target: T48, APC1434-AA; experiment: two-hybrid library CCmax; details: mean of both orientations
T48 chain: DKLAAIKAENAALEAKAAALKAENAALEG

[49] = target: T49, APC232-AA; experiment: two-hybrid library CCmax; details: mean of both orientations
T49 chain: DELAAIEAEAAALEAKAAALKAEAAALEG

[50] = target: T50, 4H2148-AA; experiment: two-hybrid library CCmax
T50 chain: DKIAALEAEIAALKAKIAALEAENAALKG

[51] = target: T51, APC1015-AA; experiment: two-hybrid library CCmax; details: mean of both orientations
T51 chain: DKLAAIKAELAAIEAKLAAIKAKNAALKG

[52] = target: T52, 4H2447-AA; experiment: two-hybrid library CCmax; details: mean of both orientations
T52 chain: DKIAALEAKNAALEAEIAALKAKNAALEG

[53] = target: T53, APC4436-AA; experiment: two-hybrid library CCmax; details: mean of both orientations
T53 chain: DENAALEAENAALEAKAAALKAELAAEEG

[54] = target: T54, APC3645-AA; experiment: two-hybrid library CCmax; details: mean of both orientations
T54 chain: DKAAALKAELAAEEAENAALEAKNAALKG

[55] = target: T55, APC4264-AA; experiment: two-hybrid library CCmax; details: mean of both orientations
T55 chain: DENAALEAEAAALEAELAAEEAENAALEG

[56] = target: T56, APC2405-AA; experiment: two-hybrid library CCmax; details: mean of both orientations
T56 chain: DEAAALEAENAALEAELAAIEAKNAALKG

[57] = target: T57, APC2237-AA; experiment: two-hybrid library CCmax; details: mean of both orientations
T57 chain: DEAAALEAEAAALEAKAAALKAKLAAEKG

[58] = target: T58, 4H807-AA; experiment: two-hybrid library CCmax; details: mean of both orientations
T58 chain: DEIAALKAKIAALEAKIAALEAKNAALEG

[59] = target: T59, APC9096-AA; experiment: two-hybrid library CCmax; details: mean of both orientations
T59 chain: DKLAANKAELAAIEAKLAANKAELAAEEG

[60] = target: T60, APC5383-AA; experiment: two-hybrid library CCmax; details: mean of both orientations
T60 chain: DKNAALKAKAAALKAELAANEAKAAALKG

[61] = target: T61, 4H733-AA; experiment: two-hybrid library CCmax; details: mean of both orientations
T61 chain: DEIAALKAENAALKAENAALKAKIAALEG

[62] = target: T62, APC6108-AA; experiment: two-hybrid library CCmax; details: mean of both orientations
T62 chain: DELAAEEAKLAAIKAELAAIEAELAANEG

[63] = target: T63, APC8191-AA; experiment: two-hybrid library CCmax; details: mean of both orientations
T63 chain: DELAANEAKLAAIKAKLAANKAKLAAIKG

[64] = target: T64, 4H2290-AA; experiment: two-hybrid library CCmax; details: mean of both orientations
T64 chain: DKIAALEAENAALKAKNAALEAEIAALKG

[65] = target: T65, APC4011-AA; experiment: two-hybrid library CCmax; details: mean of both orientations
T65 chain: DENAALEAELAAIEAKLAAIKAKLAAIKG

[66] = target: T66, APC7099-AA; experiment: two-hybrid library CCmax; details: mean of both orientations
T66 chain: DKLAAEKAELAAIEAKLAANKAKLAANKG

[67] = target: T67, APC9319-AA; experiment: two-hybrid library CCmax; details: mean of both orientations
T67 chain: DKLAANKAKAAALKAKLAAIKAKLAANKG

Binder: DKIQELKKKIEELKREIWELEKENQELER [4H2883-bH]
interaction score [1]: 0.783
interaction score [2]: -0.175
interaction score [3]: 1.73
interaction score [4]: 0.298
interaction score [5]: 1.17
interaction score [6]: 0.674

Binder: DEIAQLKQEIAELEQKNAELEWKNAQLKQ [4H568-bA]
interaction score [7]: 0.0841
interaction score [8]: -0.986
interaction score [9]: -1.26
interaction score [10]: -1.54
interaction score [11]: -0.587
interaction score [12]: 1.54
interaction score [13]: -1.16
interaction score [14]: -1.48
interaction score [15]: -0.657
interaction score [16]: -0.305
interaction score [17]: -0.352
interaction score [18]: -0.468
interaction score [19]: -1.27
interaction score [20]: 1.33
interaction score [21]: -0.527

Binder: DKIAQLKQKIAELKQEIAELEWENAQLEQ [4H2883-bA]
interaction score [38]: 0.521
interaction score [39]: 1.3
interaction score [40]: 0.793
interaction score [41]: -0.134
interaction score [42]: 1.15
interaction score [43]: -0.886

The next lines start with the values.

interaction score [22]: 0.96
interaction score [23]: 0.237
interaction score [24]: -0.669
interaction score [25]: -1.84
interaction score [26]: 2
interaction score [27]: -1.33
Binder: DKIQQLKQKIQELKQEIQELEWENQELEQ [4H2883-bN]

interaction score [28]: -0.695
interaction score [29]: -2.15
interaction score [30]: -1.2
interaction score [31]: -1.72
interaction score [32]: -1.04
interaction score [33]: -1.32
interaction score [34]: -2.51
interaction score [35]: -0.807
interaction score [36]: -1.65
interaction score [37]: -1.35
Binder: DKNEQLKEKISELKEKIEQLKEENQSLEY [P12mSN]

interaction score [44]: -1.35
interaction score [45]: -1.46
interaction score [46]: -1.22
interaction score [47]: -0.193
interaction score [48]: -1.39
interaction score [49]: -1.38
interaction score [50]: 1.63
interaction score [51]: 0.959
interaction score [52]: -1.42
interaction score [53]: -1.32
interaction score [54]: -1.31
interaction score [55]: -1.81
interaction score [56]: -1.19
interaction score [57]: -1.14
interaction score [58]: -1.41
interaction score [59]: -1.24
interaction score [60]: -1.66
interaction score [61]: -1.59
interaction score [62]: -1.13
interaction score [63]: -1.4
interaction score [64]: -1.47
interaction score [65]: -0.327
interaction score [66]: -1.55
interaction score [67]: -1.42
Binder: DKIAALEAEIAALKAKIAALEAENAALKG [4H2148-AA]
